# Measurements published in patent US20220042033A1, “COMPOSITION AND METHOD FOR CONFERRING AND/OR ENHANCING TOLERANCE AGAINST HERBICIDES BY USING VARIANTS OF PPO” (FarmHannong Co., Ltd., priority 2017, published 2022).
# Tests used:
# MxPPO [1] = assay: PPO enzyme activity of purified MBP-fused MxPPO wild type and variants; format: biochemical, Myxococcus xanthus; details: PPO enzyme activity of purified MxPPO protein, relative to wild type
# MxPPO [2] = assay: Herbicide tolerance test of MxPPO wild type and variants in PPO-deficient E. coli BT3(ΔPPO), growth on herbicide-containing LB agar; format: cell-based, Myxococcus xanthus; details: relative to MxPPO WT, dark; for Herbicide tolerance, flumioxazin: up to 1000 μM (FIGS. 21-22); for Herbicide tolerance, sulfentrazone: up to 4000 μM (FIGS. 23-24)
# Experimental: Then, the extent of tolerance was evaluated.
Molecule,Activity (%) (MxPPO [1]),"Herbicide tolerance, flumioxazin (MxPPO [2])","Herbicide tolerance, sulfentrazone (MxPPO [2])"
"R95A + I168C + A170C + L332T + M365I: MxPPO (SEQ ID NO: 3) variant (protein, Synthetic (Protoporphyrinogen IX oxidase (MxPPO) of Myxococcus xanthus)) MHHMPRTTGMNVAVVGGGISGLAVAHHLRSRGTDAVLLESSARLGGAVGTHALAGYLVEQGPNSFLDREPATRALAAALNLEGRIRAADPAAKRAYVYTRGRLRSVPASPPAFLASDILPLGARLRVAGELFSRRAPEGVDESLAAFGRRHLGHRATQVLLDAVQTGCYCGDVEQLSVAATFPMLVKMEREHRSLILGAIRAQKAQRQAALPAGTAPKLSGALSTFDGGLQVLIDALAASLGDAAHVGARVEGLAREDGGWRLIIEEHGRRAELSVAQVVLAAPAHATAKLLRPLDDALAALVAGIAYAPIAVVHLGFDAGTLPAPDGFGFTVPAEEQRRMLGAIHASTTFPFRAEGGRVLYSCIVGGARQPGLVEQDEDALAALAREELKALAGVTARPSFTRVFRWPLGIPQYNLGHLERVAAIDAALQRLPGLHLIGNAYKGVGLNDCIRNAAQLADALVAGNTSHAP",18,+ (1-9 fold higher tolerance),+++ (100-999 fold higher tolerance)
"R95A + I168C + I311M + L332T + M365V: MxPPO (SEQ ID NO: 3) variant (protein, Synthetic (Protoporphyrinogen IX oxidase (MxPPO) of Myxococcus xanthus)) MHHMPRTTGMNVAVVGGGISGLAVAHHLRSRGTDAVLLESSARLGGAVGTHALAGYLVEQGPNSFLDREPATRALAAALNLEGRIRAADPAAKRAYVYTRGRLRSVPASPPAFLASDILPLGARLRVAGELFSRRAPEGVDESLAAFGRRHLGHRATQVLLDAVQTGCYAGDVEQLSVAATFPMLVKMEREHRSLILGAIRAQKAQRQAALPAGTAPKLSGALSTFDGGLQVLIDALAASLGDAAHVGARVEGLAREDGGWRLIIEEHGRRAELSVAQVVLAAPAHATAKLLRPLDDALAALVAGIAYAPMAVVHLGFDAGTLPAPDGFGFTVPAEEQRRMLGAIHASTTFPFRAEGGRVLYSCVVGGARQPGLVEQDEDALAALAREELKALAGVTARPSFTRVFRWPLGIPQYNLGHLERVAAIDAALQRLPGLHLIGNAYKGVGLNDCIRNAAQLADALVAGNTSHAP",12,+ (1-9 fold higher tolerance),+++ (100-999 fold higher tolerance)
"I168C + A170C + I311M + L332T + M365V: MxPPO (SEQ ID NO: 3) variant (protein, Synthetic (Protoporphyrinogen IX oxidase (MxPPO) of Myxococcus xanthus)) MHHMPRTTGMNVAVVGGGISGLAVAHHLRSRGTDAVLLESSARLGGAVGTHALAGYLVEQGPNSFLDREPATRALAAALNLEGRIRAADPAAKRRYVYTRGRLRSVPASPPAFLASDILPLGARLRVAGELFSRRAPEGVDESLAAFGRRHLGHRATQVLLDAVQTGCYCGDVEQLSVAATFPMLVKMEREHRSLILGAIRAQKAQRQAALPAGTAPKLSGALSTFDGGLQVLIDALAASLGDAAHVGARVEGLAREDGGWRLIIEEHGRRAELSVAQVVLAAPAHATAKLLRPLDDALAALVAGIAYAPMAVVHLGFDAGTLPAPDGFGFTVPAEEQRRMLGAIHASTTFPFRAEGGRVLYSCVVGGARQPGLVEQDEDALAALAREELKALAGVTARPSFTRVFRWPLGIPQYNLGHLERVAAIDAALQRLPGLHLIGNAYKGVGLNDCIRNAAQLADALVAGNTSHAP",20,+ (1-9 fold higher tolerance),++ (10-99 fold higher tolerance)
"R95A + I168C + A170C + I311M + L332T + M365V: MxPPO (SEQ ID NO: 3) variant (protein, Synthetic (Protoporphyrinogen IX oxidase (MxPPO) of Myxococcus xanthus)) MHHMPRTTGMNVAVVGGGISGLAVAHHLRSRGTDAVLLESSARLGGAVGTHALAGYLVEQGPNSFLDREPATRALAAALNLEGRIRAADPAAKRAYVYTRGRLRSVPASPPAFLASDILPLGARLRVAGELFSRRAPEGVDESLAAFGRRHLGHRATQVLLDAVQTGCYCGDVEQLSVAATFPMLVKMEREHRSLILGAIRAQKAQRQAALPAGTAPKLSGALSTFDGGLQVLIDALAASLGDAAHVGARVEGLAREDGGWRLIIEEHGRRAELSVAQVVLAAPAHATAKLLRPLDDALAALVAGIAYAPMAVVHLGFDAGTLPAPDGFGFTVPAEEQRRMLGAIHASTTFPFRAEGGRVLYSCVVGGARQPGLVEQDEDALAALAREELKALAGVTARPSFTRVFRWPLGIPQYNLGHLERVAAIDAALQRLPGLHLIGNAYKGVGLNDCIRNAAQLADALVAGNTSHAP",8,+ (1-9 fold higher tolerance),+++ (100-999 fold higher tolerance)
"R95A + I168C + I311M + M365V: MxPPO (SEQ ID NO: 3) variant (protein, Synthetic (Protoporphyrinogen IX oxidase (MxPPO) of Myxococcus xanthus)) MHHMPRTTGMNVAVVGGGISGLAVAHHLRSRGTDAVLLESSARLGGAVGTHALAGYLVEQGPNSFLDREPATRALAAALNLEGRIRAADPAAKRAYVYTRGRLRSVPASPPAFLASDILPLGARLRVAGELFSRRAPEGVDESLAAFGRRHLGHRATQVLLDAVQTGCYAGDVEQLSVAATFPMLVKMEREHRSLILGAIRAQKAQRQAALPAGTAPKLSGALSTFDGGLQVLIDALAASLGDAAHVGARVEGLAREDGGWRLIIEEHGRRAELSVAQVVLAAPAHATAKLLRPLDDALAALVAGIAYAPMAVVHLGFDAGTLPAPDGFGFLVPAEEQRRMLGAIHASTTFPFRAEGGRVLYSCVVGGARQPGLVEQDEDALAALAREELKALAGVTARPSFTRVFRWPLGIPQYNLGHLERVAAIDAALQRLPGLHLIGNAYKGVGLNDCIRNAAQLADALVAGNTSHAP",37,+ (1-9 fold higher tolerance),+++ (100-999 fold higher tolerance)
"R95A + I168C + L332T + M365I: MxPPO (SEQ ID NO: 3) variant (protein, Synthetic (Protoporphyrinogen IX oxidase (MxPPO) of Myxococcus xanthus)) MHHMPRTTGMNVAVVGGGISGLAVAHHLRSRGTDAVLLESSARLGGAVGTHALAGYLVEQGPNSFLDREPATRALAAALNLEGRIRAADPAAKRAYVYTRGRLRSVPASPPAFLASDILPLGARLRVAGELFSRRAPEGVDESLAAFGRRHLGHRATQVLLDAVQTGCYAGDVEQLSVAATFPMLVKMEREHRSLILGAIRAQKAQRQAALPAGTAPKLSGALSTFDGGLQVLIDALAASLGDAAHVGARVEGLAREDGGWRLIIEEHGRRAELSVAQVVLAAPAHATAKLLRPLDDALAALVAGIAYAPIAVVHLGFDAGTLPAPDGFGFTVPAEEQRRMLGAIHASTTFPFRAEGGRVLYSCIVGGARQPGLVEQDEDALAALAREELKALAGVTARPSFTRVFRWPLGIPQYNLGHLERVAAIDAALQRLPGLHLIGNAYKGVGLNDCIRNAAQLADALVAGNTSHAP",34,+ (1-9 fold higher tolerance),++ (10-99 fold higher tolerance)
"R95A + A170C + I311M + M365V: MxPPO (SEQ ID NO: 3) variant (protein, Synthetic (Protoporphyrinogen IX oxidase (MxPPO) of Myxococcus xanthus)) MHHMPRTTGMNVAVVGGGISGLAVAHHLRSRGTDAVLLESSARLGGAVGTHALAGYLVEQGPNSFLDREPATRALAAALNLEGRIRAADPAAKRAYVYTRGRLRSVPASPPAFLASDILPLGARLRVAGELFSRRAPEGVDESLAAFGRRHLGHRATQVLLDAVQTGIYCGDVEQLSVAATFPMLVKMEREHRSLILGAIRAQKAQRQAALPAGTAPKLSGALSTFDGGLQVLIDALAASLGDAAHVGARVEGLAREDGGWRLIIEEHGRRAELSVAQVVLAAPAHATAKLLRPLDDALAALVAGIAYAPMAVVHLGFDAGTLPAPDGFGFLVPAEEQRRMLGAIHASTTFPFRAEGGRVLYSCVVGGARQPGLVEQDEDALAALAREELKALAGVTARPSFTRVFRWPLGIPQYNLGHLERVAAIDAALQRLPGLHLIGNAYKGVGLNDCIRNAAQLADALVAGNTSHAP",31,+ (1-9 fold higher tolerance),+ (1-9 fold higher tolerance)
